In experiment [1] the target is unrelated Fc-fused recombinant protein. The experiment in a line: ELISA, negative control Fc protein. Background: ELISA stands for enzyme-linked immunosorbent assay.
The target in the next experiment is T1, human serum albumin (human, UniProt P02768 25-609).
T1 construct: Negative control of the ELISA; also called HSA
In words: ELISA, negative control HSA. The method in brief: (§1)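 Biotinylated CD137-Fc, an unrelated Fc-fusion protein or human serum albumin captured 1 h on streptavidin plates blocked in Starting Block T20; diluted bacterial lysate applied 1 h. Bound binders detected with HRP-conjugated anti-Centyrin antibody (PAB25) for 1 h, then POD substrate read-out.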

Experiment [2] deals with T2, recombinant biotinylated CD137 protein (Fc-fusion protein, R&D Systems 838-4B) (human, UniProt Q07011 24-186, biotinylated, sites not stated).
T2 construct: Bought Fc fusion; also called CD137-Fc
In words: ELISA, lysate on biotinylated CD137-Fc. The method in brief:
as §1

Experiment [3] has as its target extracellular domain of human CD137 on the surface of CHO-K1 cells (human, UniProt Q07011 24-186). The experiment in a line: flow cytometry on CHO-K1 cells with human CD137 ECD. As to the method: Cell surface binding was analyzed via flow cytometry. Cenyrins were prepared at a maximal concentration of 500 nM in the presence of 125 nM anti His-mIgG1 antibody and then serially diluted in PBS/1% FCS buffer. Samples were then applied to approx 100 000 CHO-Kl cells expressing the extracellular domain of human CD137 on their surface. Unbound Centyrin/Antibody complexes were washed away and bound FN3 domains were detected by the addition of goat anti mouse-FITC labeled antibody. Samples were then aquired by flow cytometry. Subsequently, Mean flurescence intensity was plotted against the log Centyrin concentration and EC50 values were calculated by nonlinear regression using GraphPad Prism.
In general terms: In flow cytometry, cells or beads pass a laser one at a time.

The target in experiment [4] is T3, recombinant human CD137-Fc-IgG1 (human, UniProt Q07011 24-186, limits assumed).
T3 construct: Captured by anti human IgG on the Biacore chip
In words: SPR (Biacore T100), CD137-Fc captured by anti human IgG, 1:1 model. The protocol: For selected FN3 domains, binding to recombinant CD137-Fc was evaluated using surface plasmon resonance (Biacore T100). For each cycle approximately 500 RU of recombinant human CD137-Fc-IgG1 was captured via an anti human IgG immobilized on the surface of a CMS chip. Once CD137-Fc protein was captured, increasing concentrations of Centyrin candidates were injected for 120 s and dissociation was then analyzed for 240 s. A flow cell immobilized with just the anti human IgG1 antibody served as reference flow cell. Kd values were subsequently extrapolated using a 1:1 kinetic binding model (BiaEvaluation software).

For experiment [5], the target named is human serum albumin (human) (UniProt P02768). In words: ELISA, negative control HSA.
Chain of human serum albumin (human) (P02768 25-609 limits assumed): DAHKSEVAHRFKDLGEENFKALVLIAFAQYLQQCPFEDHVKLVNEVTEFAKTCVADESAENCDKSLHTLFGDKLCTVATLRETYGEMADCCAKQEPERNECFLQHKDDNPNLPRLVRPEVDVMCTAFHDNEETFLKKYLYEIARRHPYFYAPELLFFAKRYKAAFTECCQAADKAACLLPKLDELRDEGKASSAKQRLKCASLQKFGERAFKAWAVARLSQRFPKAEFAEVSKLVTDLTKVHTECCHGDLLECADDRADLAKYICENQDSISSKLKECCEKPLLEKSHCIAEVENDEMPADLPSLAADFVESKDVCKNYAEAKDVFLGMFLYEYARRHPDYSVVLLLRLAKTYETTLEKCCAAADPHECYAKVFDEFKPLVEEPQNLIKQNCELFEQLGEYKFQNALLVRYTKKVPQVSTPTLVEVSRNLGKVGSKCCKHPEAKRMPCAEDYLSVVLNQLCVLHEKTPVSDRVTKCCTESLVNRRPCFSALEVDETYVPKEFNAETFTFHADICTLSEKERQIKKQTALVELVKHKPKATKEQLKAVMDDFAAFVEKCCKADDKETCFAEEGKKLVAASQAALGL
Experiment [6] shares this target. In words: ELISA, bacterial lysate on plate-bound antigen, luminescence.
In experiment [7] the target is unrelated Fc-fused recombinant protein (negative control). The description is as above.
The target in experiment [8] is T4, recombinant biotinylated human CD137 protein (Fc-fusion protein, R&D Systems 838-4B) (human, UniProt Q07011 24-186, biotinylated (site not stated)).
T4 construct: Bought Fc fusion; The ELISA used the same antigen as the panning; also called CD137-Fc; biotinylated CD137; not shown: Fc part of the bought fusion protein
The experiment is described as above. The method in brief:
as §1

T1 sequence (P02768 25-609 limits assumed): as above

B1: ISOP193ER9P1A3 (designed binder, not shown: small tags and cut ends)
chain: LPAPKNLVVSRVTEDSARLSWTTPDAAFDSFDIYYFEHPVGGEAIVLTVPGSERSYDLTGLKPGTEYLVTIYGVKGGYLSKPLSAIFTT
Regarding B1, the ELISA Fc Control (RLU) in experiment [1] turned out to be 3040 RLU. In the experiment with human serum albumin, the “ELISA HSA (RLU)” value is 880 RLU. Also, the “ELISA CD137 (RLU)” value in experiment [2] worked out at 1.42e+07 RLU. Further, the EC50 (as a rule, the concentration giving half of the maximal effect) in [3] stood at 10.2 nM. In experiment [4], the equilibrium dissociation constant (Kd) (as a rule, the concentration at which binding is half-saturated) is 8.3 nM.

B2: ISOP193ER9P1E1 (designed binder, not shown: small tags and cut ends)
chain: LPAPKNLVVSRVTEDSARLSWTAPDAAFDSFDIYYFEHPVGGEAIVLTVPGSERSYDLTGLKPGTEYLVTIYGVKGGSVSIPLSAIFTT
For the molecule B2, the ELISA Fc Control (RLU) in [1] was 1200 RLU. Moreover, the “ELISA HSA (RLU)” value with human serum albumin turned out to be 560 RLU. The “ELISA CD137 (RLU)” value in [2] was 1.5e+07 RLU. In experiment [3], this molecule came in with a concentration giving a half-maximal response (EC50) of 12.6 nM. In addition, in [4], the Kd was found to be 10.6 nM.

B3: ISOP193HR9P1E2 (designed binder, not shown: small tags and cut ends)
chain: LPAPKNLVVSRVTEDSARLSWTAPDAAFDSFEIYYLEWCSGGEAIVLTVPGSERSYDLTGLKPGTEYLVTIYGVKGCAASDPLSAIFTT
Molecule B3 came in with an ELISA HSA (RLU) in [5] of 3840 RLU. Besides, in experiment [1], the ELISA Fc Control (RLU) turned out to be 13100 RLU. For the same molecule, the “ELISA CD137 (RLU)” value in [2] was 9.02e+06 RLU.

B4: ISOP193ER9P1G2 (designed binder, not shown: small tags and cut ends)
chain: LPAPKNLVVSRVTEDSARLSWTAPDAAFDSFDIYYFEQPVGGEAIVLTVPGSERSYDLTGLKPGTEYLVTIYGVKGGYLSMPLSAIFTT
Take B4: the ELISA Fc Control (RLU) in experiment [1] was 1680 RLU. Besides, the “ELISA HSA (RLU)” value with human serum albumin was found to be 720 RLU. Moreover, the “ELISA CD137 (RLU)” value in experiment [2] was found to be 7.19e+06 RLU. The molecule also registered an EC50 in experiment [3] of 22.9 nM. Further, the Kd in experiment [4] came out at 65.6 nM.

B5: ISOP193ER9P1C4 (designed binder, not shown: small tags and cut ends)
chain: LPAPKNLVVSRVTEDSARLSWTAPDAAFDSFDIYYFEHPVGGEAIVLTVPGSERSYDLTGLKPGTEYLVTIYGVKGGIWSVPLSAIFTT
Regarding B5, the ELISA Fc Control (RLU) in experiment [1] was 960 RLU. The “ELISA HSA (RLU)” value in the experiment with human serum albumin is 320 RLU. For the same molecule, the “ELISA CD137 (RLU)” value in experiment [2] worked out at 1.55e+07 RLU. In addition, the midpoint of the response in [3], the EC50, lay at 18.9 nM. Besides, in experiment [4], the Kd is 13.1 nM.

B6: ISOP193ER9P1E2 (designed binder, not shown: small tags and cut ends)
chain: LPAPKNLVVSRVTEDSARLSWTAPDAAFDSFDIYYFEHPVGGEAIVLTVPGSERSYDLTGLKPGTEYLVTIYGVKGGFWSQPLSAIFTT
For B6, the ELISA Fc Control (RLU) in experiment [1] worked out at 1040 RLU. Moreover, the “ELISA HSA (RLU)” value with human serum albumin came out at 560 RLU. The “ELISA CD137 (RLU)” value in experiment [2] is 1.57e+07 RLU. Besides, the EC50 in experiment [3] stood at 15.3 nM. The dissociation constant Kd in [4] amounted to 10.9 nM.

B7: ISOP193HR9P1D11 (designed binder, not shown: small tags and cut ends)
chain: LPAPKNLVVSRVTEDSARLSWTAPDAAFDSFDIYYYELRLGGEAIVLTVPGSERSYDLTGLKPGTEYLVTIYGVKVCEQSYPLSAIFTT
With B7, the ELISA HSA (RLU) in [5] is 6240 RLU. In addition, in experiment [1], the ELISA Fc Control (RLU) was 48700 RLU. Moreover, in experiment [2], the “ELISA CD137 (RLU)” value was found to be 1.42e+07 RLU.

B8: ISOP193ER9P1C9 (designed binder, not shown: small tags and cut ends)
chain: LPAPKNLVVSRVTEDSARLSWTAPDAAFDSFDIYYFEHPVGGEAIVLTVPGSERSYDLTGLKPGTEYLVTIYGVKGGELSKPLSAISTT
Regarding B8, the ELISA Fc Control (RLU) in experiment [1] was 880 RLU. Moreover, the “ELISA HSA (RLU)” value with human serum albumin turned out to be 560 RLU. Besides, the “ELISA CD137 (RLU)” value in experiment [2] came to 1.43e+07 RLU. In experiment [3], the EC50 was found to be 14.1 nM. For the same molecule, the dissociation constant (Kd) in experiment [4] worked out at 25.1 nM.

B9: ISOP193HR9P1E6 (designed binder, not shown: small tags and cut ends)
chain: LPAPKNLVVSRVTEDSARLSWTAPDAAFDSFEIYYAEFGYYGEAIVLTVPGSERSYDLTGLKPGTEYLVTIYGVKGCAASDPLSAIFTT
In [5], B9 gave an ELISA HSA (RLU) of 3040 RLU. Also, in experiment [1], the ELISA Fc Control (RLU) came out at 20100 RLU. The “ELISA CD137 (RLU)” value in experiment [2] was determined as 1.13e+07 RLU.

B10: ISOP193ER9P1A4 (designed binder, not shown: small tags and cut ends)
chain: LPAPKNLIVSRVTEDSARLSWTAPDAAFDSFEIYYKELRAEGEAIVLTVPGSERSYDLTGLKPGTEYLVTIYGVKGGSVSIPLSAIFTT
Turning to B10, in experiment [1], the ELISA Fc Control (RLU) worked out at 960 RLU. In addition, in the experiment with human serum albumin, the “ELISA HSA (RLU)” value came to 480 RLU. Further, in experiment [2], the “ELISA CD137 (RLU)” value came out at 9.81e+06 RLU. Further, in [3], the response was half-maximal at 27.1 nM (EC50). In addition, the Kd in experiment [4] is 117 nM.

B11: ISOP193ER9P1D4 (designed binder, not shown: small tags and cut ends)
chain: LPAPKNLVVSRVTEDSARLSWTAPDAAFDSFDIYYFEHPVGGEAIVLTVPGSERSYDLTGLKPGTEYLVTIYGVKGGTYSPPLSAIFTT
As to B11, the ELISA Fc Control (RLU) in experiment [1] is 1120 RLU. Moreover, the “ELISA HSA (RLU)” value with human serum albumin amounted to 480 RLU. In addition, the “ELISA CD137 (RLU)” value in experiment [2] came to 1.6e+07 RLU. The molecule also registered an EC50 in experiment [3] of 12.9 nM. Moreover, in [4], the Kd worked out at 9.55 nM.

B12: ISOP193ER9P1G9 (designed binder, not shown: small tags and cut ends)
chain: LPAPKNLVVSRVTEDSARLSWTAPDAAFDSFDIYYFEHPVGGEAIVLTVPGSERSYDLTGLKPGTEYLVTIYGVKGGNGSSPLSAIFTT
With B12, the ELISA Fc Control (RLU) in experiment [1] stood at 1280 RLU. Besides, in the experiment with human serum albumin, the “ELISA HSA (RLU)” value is 400 RLU. The “ELISA CD137 (RLU)” value in experiment [2] was 1.29e+07 RLU. Further, the EC50 in [3] came out at 15.3 nM. The Kd in [4] is 59.9 nM.

B13: ISOP193ER9P1C10 (designed binder, not shown: small tags and cut ends)
chain: LLAPKNLVVSRVTEDSARLSWIAPDAAFDSFEIYYKELRAEGEAIVLTVPGSERSYDLTGLKPGTEYLVTIYGVKGGSVSIPLSAIFTT
For B13, the ELISA Fc Control (RLU) in experiment [1] came out at 2480 RLU. Besides, the “ELISA HSA (RLU)” value with human serum albumin came out at 560 RLU. In addition, the “ELISA CD137 (RLU)” value in experiment [2] stood at 8.87e+06 RLU. The EC50 in experiment [3] is 31 nM. The Kd in [4] was 108 nM.

B14: ISOP120HR5P1E2 (designed binder, not shown: small tags and cut ends)
chain: LPAPKNLVVSHVTEDSARLSWTAPDAAFDSFEIYYLEGGRGEAIVLTVPGSERSYDLTVLKPGTEYLGTIYGVKCGWASNPLSAIFTT
notes: FN3 domain (Centyrin); tested as E. coli lysate
Regarding B14, in experiment [6], the ELISA HSA (RLU) was determined as 2880 RLU. Besides, the ELISA Fc Control (RLU) in experiment [7] worked out at 720 RLU. Also, the “ELISA CD137-Fc (RLU)” value in experiment [8] came out at 1.32e+06 RLU.

B15: ISOP193HR9P1A11 (designed binder, not shown: small tags and cut ends)
chain: LPAPKNLVVSRVTEDSARLSWTAPDAAFDSFEIYYLEGGRGEAIVLTVPGSERSYDLTGLKPGTEYLVTIYGVKCGWASNPLSAIFTT
B15 registered an ELISA HSA (RLU) in experiment [5] of 4240 RLU. Besides, the ELISA Fc Control (RLU) in [1] is 28300 RLU. The “ELISA CD137 (RLU)” value in experiment [2] stood at 1.66e+07 RLU.

The values above are taken from patent US20220259289A1 (Janssen / Centocor, published 2022).
